The assay addresses a representative mIgG1 mAb (used for the KD determinations; not told which) (mouse). The assay can be described thus: SPR; BIAcore 2000; mIgG1 mAb immobilised on CM-5; Z variants serially diluted 250 nM to 64 µM; KD for 1:1 interaction from equilibrium response values.
By Kd is commonly meant the constant that tells how readily two partners part at equilibrium. High values mean lower affinity, low ones higher affinity. Substance “ZF5I, Z domain variant with Phe to Ile substitution at position 5 (designed binder)” showed a Kd of 10 µM.
The same measure for “ZF5R, Z domain variant with F5R substitution (designed binder)”: 10 µM.
“wild type Z domain (ZWT), staphylococcal protein A-derived 58-residue three-helix bundle domain (designed binder)” returned a Kd of over 100 µM.
